Experimental data: US6387638
Like-named read-outs stand apart in the source and are kept apart here. Ends that are not written are not given here.

Columns and labels:
[1] = molecular target: T1, ErbB-4 receptor-Ig fusion (homodimer) (human, UniProt Q15303 26-651; Q15303 26-640); test: phage ELISA, soluble ErbB-4-Ig as competitor
[2] = molecular target: T2, ErbB-3 receptor-Ig fusion (homodimer) (human, UniProt P21860 20-643; P21860 20-636); test: phage ELISA, soluble ErbB-3-Ig as competitor
[3] = molecular target: T1, ErbB-4 receptor-Ig fusion (homodimer); test: phage ELISA, soluble ErbB-4-Ig as competitor; remark: listed apart in the source
[4] = molecular target: T2, ErbB-3 receptor-Ig fusion (homodimer); test: phage ELISA, soluble ErbB-3-Ig as competitor; remark: listed apart in the source
[5] = molecular target: T2, ErbB-3 receptor-Ig fusion (homodimer); test: phage ELISA, soluble ErbB-3-Ig as competitor; remark: listed apart in the source
[6] = molecular target: T2, ErbB-3 receptor-Ig fusion (homodimer); test: phage ELISA, soluble ErbB-3-Ig as competitor; remark: listed apart in the source
[7] = molecular target: T1, ErbB-4 receptor-Ig fusion (homodimer); test: phage ELISA, soluble ErbB-4-Ig as competitor; remark: listed apart in the source
[8] = molecular target: T1, ErbB-4 receptor-Ig fusion (homodimer); test: phage ELISA, soluble ErbB-4-Ig as competitor; remark: listed apart in the source

T1 sequence (Q15303 other isoform, or with tags, fused parts or gaps): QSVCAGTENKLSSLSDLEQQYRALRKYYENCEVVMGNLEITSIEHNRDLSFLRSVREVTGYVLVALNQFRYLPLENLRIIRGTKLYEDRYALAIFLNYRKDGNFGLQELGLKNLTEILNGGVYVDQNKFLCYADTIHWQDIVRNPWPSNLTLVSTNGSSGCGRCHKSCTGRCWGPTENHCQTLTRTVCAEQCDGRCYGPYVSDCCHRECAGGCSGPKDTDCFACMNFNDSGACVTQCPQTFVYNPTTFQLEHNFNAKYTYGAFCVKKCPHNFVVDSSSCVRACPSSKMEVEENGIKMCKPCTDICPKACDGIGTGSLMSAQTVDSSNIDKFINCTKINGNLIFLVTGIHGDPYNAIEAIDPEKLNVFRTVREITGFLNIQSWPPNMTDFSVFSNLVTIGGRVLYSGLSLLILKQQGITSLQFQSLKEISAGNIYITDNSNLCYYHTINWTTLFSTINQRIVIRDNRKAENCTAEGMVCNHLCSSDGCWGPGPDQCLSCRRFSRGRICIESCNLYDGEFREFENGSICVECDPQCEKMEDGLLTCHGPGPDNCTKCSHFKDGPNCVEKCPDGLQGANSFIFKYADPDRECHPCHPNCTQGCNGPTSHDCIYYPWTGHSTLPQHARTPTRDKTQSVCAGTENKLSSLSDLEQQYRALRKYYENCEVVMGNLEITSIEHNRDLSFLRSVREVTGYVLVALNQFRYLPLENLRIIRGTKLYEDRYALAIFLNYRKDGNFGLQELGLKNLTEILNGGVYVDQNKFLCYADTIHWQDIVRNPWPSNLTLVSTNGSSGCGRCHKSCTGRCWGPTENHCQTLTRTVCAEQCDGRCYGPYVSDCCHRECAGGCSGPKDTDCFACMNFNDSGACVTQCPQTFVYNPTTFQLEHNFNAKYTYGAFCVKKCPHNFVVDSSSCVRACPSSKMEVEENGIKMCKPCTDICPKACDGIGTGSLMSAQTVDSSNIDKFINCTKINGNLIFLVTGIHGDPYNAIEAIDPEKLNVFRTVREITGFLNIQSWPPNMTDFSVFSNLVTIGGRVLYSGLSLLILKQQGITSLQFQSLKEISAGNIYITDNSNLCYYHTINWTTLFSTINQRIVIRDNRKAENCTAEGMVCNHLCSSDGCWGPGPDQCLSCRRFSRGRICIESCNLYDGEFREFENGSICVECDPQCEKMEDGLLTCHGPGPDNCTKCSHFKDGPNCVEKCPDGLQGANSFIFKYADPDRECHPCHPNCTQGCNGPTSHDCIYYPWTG
T2 sequence (P21860 other isoform, or with tags, fused parts or gaps): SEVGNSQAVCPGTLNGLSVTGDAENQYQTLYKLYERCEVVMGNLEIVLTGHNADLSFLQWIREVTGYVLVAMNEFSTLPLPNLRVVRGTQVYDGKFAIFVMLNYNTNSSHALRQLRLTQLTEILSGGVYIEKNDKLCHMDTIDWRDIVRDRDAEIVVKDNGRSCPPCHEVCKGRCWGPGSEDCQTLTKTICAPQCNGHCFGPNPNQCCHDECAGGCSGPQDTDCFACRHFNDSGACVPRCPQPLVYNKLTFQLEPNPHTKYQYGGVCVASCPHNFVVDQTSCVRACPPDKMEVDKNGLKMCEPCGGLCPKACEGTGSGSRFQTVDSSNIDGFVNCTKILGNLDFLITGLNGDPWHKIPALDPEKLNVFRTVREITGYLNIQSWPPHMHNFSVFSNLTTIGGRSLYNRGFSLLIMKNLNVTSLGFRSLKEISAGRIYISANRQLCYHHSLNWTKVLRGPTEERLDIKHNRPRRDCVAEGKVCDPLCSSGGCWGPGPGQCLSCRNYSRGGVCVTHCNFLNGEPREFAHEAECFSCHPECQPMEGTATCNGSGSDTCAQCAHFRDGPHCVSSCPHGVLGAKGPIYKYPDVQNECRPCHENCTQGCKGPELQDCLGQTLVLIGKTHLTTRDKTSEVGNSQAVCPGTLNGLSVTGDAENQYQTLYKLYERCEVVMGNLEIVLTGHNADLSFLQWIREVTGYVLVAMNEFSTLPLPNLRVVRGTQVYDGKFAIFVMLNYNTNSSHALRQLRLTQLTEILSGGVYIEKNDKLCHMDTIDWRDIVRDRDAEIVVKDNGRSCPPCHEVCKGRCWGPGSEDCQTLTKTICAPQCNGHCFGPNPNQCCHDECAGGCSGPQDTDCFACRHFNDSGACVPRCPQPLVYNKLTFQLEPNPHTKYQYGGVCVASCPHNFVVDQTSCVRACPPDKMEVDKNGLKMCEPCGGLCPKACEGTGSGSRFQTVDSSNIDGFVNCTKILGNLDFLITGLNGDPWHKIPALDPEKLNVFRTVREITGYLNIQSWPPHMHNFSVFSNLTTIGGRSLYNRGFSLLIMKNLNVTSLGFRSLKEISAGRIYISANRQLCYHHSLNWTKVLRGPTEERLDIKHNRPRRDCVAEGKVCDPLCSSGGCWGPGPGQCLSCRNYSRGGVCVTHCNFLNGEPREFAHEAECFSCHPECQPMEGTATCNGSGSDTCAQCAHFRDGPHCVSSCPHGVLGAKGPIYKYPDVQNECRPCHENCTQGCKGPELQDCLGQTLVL

HRG-β1 177-244 H178D L179V, phage-displayed (Example 4 clone) (from UniProt P69168 265-424) (ligand)
EC50 Mut/WT [1]: 2
EC50 Mut/WT [2]: 2.2

HRG-β1 177-244 H178W with 228-231 replaced by Met, phage-displayed (Example 4 clone) (from UniProt P69168 265-424) (ligand)
EC50 Mut/WT [1]: 1.7
EC50 Mut/WT [2]: 1.2

HRG-β1 177-244 L179V, phage-displayed (Example 4 clone) (from UniProt P69168 265-424) (ligand)
EC50 Mut/WT [1]: 1.6
EC50 Mut/WT [2]: 1.5

HRG-β1 177-244 H178E, phage-displayed (Example 4 clone) (from UniProt P69168 265-424) (ligand)
EC50 Mut/WT [1]: 1.7
EC50 Mut/WT [2]: 9.5

HRG-β1 177-244 H178L with 228-231 replaced by Met, phage-displayed (Example 4 clone) (from UniProt P69168 265-424) (ligand)
EC50 Mut/WT [1]: 1.7
EC50 Mut/WT [2]: 6.4

HRG-β1 177-244 H178L, phage-displayed (Example 4 clone) (from UniProt P69168 265-424) (ligand)
EC50 Mut/WT [1]: 1.2
EC50 Mut/WT [2]: 1.4

HRG-β1 177-244 R207P, phage-displayed (Example 4 clone) (from UniProt P69168 265-424) (ligand)
EC50 Mut/WT [1]: 1.3
EC50 Mut/WT [2]: 6.1

B1: HRG8: wild-type HRG-β1 177-228 (HRG-β1 EGF 1-52) fused via (GGGS)3 to pIII 323, phage-displayed (ligand, phage M13)
chain: SHLVKCAEKEKTFCVNGGECFMVKDLSNPSRYLCKCPNEFTGDRCQNYVMASGGGSGGGSGGGSNSQMAQVGDGDNSPLMNNFRQYLPSLPQSVECRPFVFSAGKPYEFSIDCDKINLFRGVFAFLLYVATFMYVFSTFANILRNKES
notes: range 323-end; Monovalent M13 phage display; also called wild-type HRG-β1 EGF-phage
EC50(wt)/EC50(mut) [3]: 1 ratio
EC50(wt)/EC50(mut) [4]: 1 ratio

B2: HRG-β1 177-244 F216A, phage-displayed (ligand, phage M13)
chain: SHLVKCAEKEKTFCVNGGECFMVKDLSNPSRYLCKCPNEATGDRCQNYVMASFYKHLGIEFMEAEELYGGSGGGSGSGDFDYEKMANANKGAMTENADENALQSDAKGKLDSVATDYGAAIDGFIGDVSGLANGNGATGDFAGSNSQMAQVGDGDNSPLMNNFRQYLPSLPQSVECRPFVFSAGKPYEFSIDCDKINLFRGVFAFLLYVATFMYVASTFANILRNKES
notes: range 247-end
EC50 [5]: 500 nM

B3: HRG-β1 EGF variant D4, phage-displayed (ligand)
chain: SHLVKCAEKEKTFCVNGGECYRVKTLSNPSRYLCKCPNEFTGDRCQNYVMAS
modifications: not fully specified; cysteine pairing not given here
notes: pHRG8-g3 scaffold; not shown: Display carrier only: the (GGGS)3 linker and the M13 pIII C-terminal fragment from residue 323
EC50(wt)/EC50(mut) [3]: 5 ratio
EC50(wt)/EC50(mut) [4]: 2.9 ratio

B4: HRG-β1 177-244 L179M, phage-displayed (Example 4 clone) (ligand)
chain: SHMVKCAEKEKTFCVNGGECFMVKDLSNPSRYLCKCPNEFTGDRCQNYVMASFYKHLGIEFMEAEELY
notes: not shown: Display carrier only: the M13 pIII C-terminal fragment from residue 247
EC50 Mut/WT [6]: 1.2 ratio
EC50 Mut/WT [7]: 1.5 ratio

B5: HRG-β1 177-244 F189A, phage-displayed (ligand)
chain: SHLVKCAEKEKTACVNGGECFMVKDLSNPSRYLCKCPNEFTGDRCQNYVMASFYKHLGIEFMEAEELY
EC50 [8]: 106 nM
EC50 [5]: 892 nM

B6: HRG-β1 177-244 H178E L179V, phage-displayed (Example 4 clone) (ligand)
chain: SEVVKCAEKEKTFCVNGGECFMVKDLSNPSRYLCKCPNEFTGDRCQNYVMASFYKHLGIEFMEAEELY
notes: also called E V ·; not shown: M13 pIII C-terminal fragment (fusion point pIII 247), the phage display partner
EC50 Mut/WT [6]: 0.8 ratio
EC50 Mut/WT [7]: 1.7 ratio

B7: HRG-β1 177-244 H178T L179M, phage-displayed (Example 4 clone) (ligand)
chain: STMVKCAEKEKTFCVNGGECFMVKDLSNPSRYLCKCPNEFTGDRCQNYVMASFYKHLGIEFMEAEELY
notes: also called T M ·; not shown: M13 pIII C-terminal fragment (fusion point pIII 247), the phage display partner
EC50 Mut/WT [6]: 1.4 ratio
EC50 Mut/WT [7]: 1.6 ratio
